Each substance was assayed against hs12a_human HSPA12A (UniProt O43301).
Sequence of UniProt O43301 (O43301 whole entry): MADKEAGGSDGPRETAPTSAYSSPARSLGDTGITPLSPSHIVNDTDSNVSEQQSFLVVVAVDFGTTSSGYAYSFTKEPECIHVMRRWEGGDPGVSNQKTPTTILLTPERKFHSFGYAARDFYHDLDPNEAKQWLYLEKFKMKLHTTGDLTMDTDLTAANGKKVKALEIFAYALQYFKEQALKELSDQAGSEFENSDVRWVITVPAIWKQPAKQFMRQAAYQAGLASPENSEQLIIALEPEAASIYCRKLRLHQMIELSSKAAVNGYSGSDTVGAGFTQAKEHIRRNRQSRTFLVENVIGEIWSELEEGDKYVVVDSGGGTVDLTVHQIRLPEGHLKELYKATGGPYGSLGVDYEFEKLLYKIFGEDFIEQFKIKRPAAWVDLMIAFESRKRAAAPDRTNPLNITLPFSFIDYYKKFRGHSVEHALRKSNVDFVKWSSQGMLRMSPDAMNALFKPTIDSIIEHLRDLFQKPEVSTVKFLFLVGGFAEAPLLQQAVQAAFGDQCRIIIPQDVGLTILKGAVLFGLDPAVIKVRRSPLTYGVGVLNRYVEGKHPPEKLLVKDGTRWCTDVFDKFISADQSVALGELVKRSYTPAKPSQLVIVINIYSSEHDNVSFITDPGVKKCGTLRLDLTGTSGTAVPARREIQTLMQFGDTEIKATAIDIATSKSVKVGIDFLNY

| effect of a mutation on the interaction | Substance |
| --- | --- |
| with no effect | Sortilin-related receptor (Homo sapiens), Q92673 V2209A;P2210A |
| disrupting interaction strength | Sortilin-related receptor (Homo sapiens), Q92673 E2194A;D2195A;D2196A;E2197A;D2198A |
| with no effect | Sortilin-related receptor (Homo sapiens), Q92673 D2190A;D2191A |
| with no effect | Sortilin-related receptor (Homo sapiens), Q92673 F2205A;S2206A |
| disrupting interaction strength | Sortilin-related receptor (Homo sapiens), Q92673 D2207A;D2208A |
| with no effect | Sortilin-related receptor (Homo sapiens), Q92673 T2203A;G2204A |

From IntAct's records for PubMed 30679749
